This test has as its target T1, PBP1B E341A (E. coli, UniProt P02919 46-844, E341A).
T1 construct: PBP1B, E. coli, residues 46-844, made by mutagenesis of pDML924; source: E. coli BL21(DE3), purified (membrane extract, HisTrap, thrombin, HiTrap SP ion exchange)
T1 sequence (looked up): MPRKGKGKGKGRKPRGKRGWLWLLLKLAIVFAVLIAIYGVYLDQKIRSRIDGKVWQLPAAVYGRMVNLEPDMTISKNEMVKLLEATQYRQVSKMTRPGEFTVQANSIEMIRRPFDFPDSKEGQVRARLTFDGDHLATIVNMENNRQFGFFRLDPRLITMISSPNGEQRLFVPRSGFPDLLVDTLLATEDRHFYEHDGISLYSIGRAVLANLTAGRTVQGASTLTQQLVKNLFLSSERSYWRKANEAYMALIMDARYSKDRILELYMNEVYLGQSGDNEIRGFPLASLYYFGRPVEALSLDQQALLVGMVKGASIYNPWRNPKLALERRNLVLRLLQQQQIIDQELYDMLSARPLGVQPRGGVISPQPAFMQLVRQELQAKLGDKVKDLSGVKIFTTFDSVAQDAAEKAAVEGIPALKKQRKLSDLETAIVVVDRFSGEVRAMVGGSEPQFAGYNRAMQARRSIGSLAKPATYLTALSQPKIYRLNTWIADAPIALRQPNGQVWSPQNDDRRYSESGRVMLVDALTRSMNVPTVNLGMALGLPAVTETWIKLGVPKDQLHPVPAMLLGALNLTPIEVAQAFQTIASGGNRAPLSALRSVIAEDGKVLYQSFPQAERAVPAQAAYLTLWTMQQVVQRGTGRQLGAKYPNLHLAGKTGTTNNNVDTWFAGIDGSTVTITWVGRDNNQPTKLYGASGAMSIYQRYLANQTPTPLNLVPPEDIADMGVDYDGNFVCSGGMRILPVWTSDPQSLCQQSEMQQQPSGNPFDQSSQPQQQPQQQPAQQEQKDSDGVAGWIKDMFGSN
Put plainly: SPR; PBP1B versions immobilised to the chip surface; LpoB injected from 19.5 nM to 10 μM; apparent KD by non-linear regression, at least three independent experiments. To be noted: both partners purified.

B1: LpoB (natural protein, E. coli)
chain: VGQREPAPVEEVKPAPEQPAEPQQPVPTVPSVPTIPQQPGPIEHEDQTAPPAPHIRHYDWNGAMQPMVSKMLGADGVTAGSVLLVDSVNNRTNGSLNAAEATETLRNALANNGKFTLVSAQQLSMAKQQLGLSPQDSLGTRSKAIGIARNVGAHYVLYSSASGNVNAPTLQMQLMLVQTGEIIWSGKGAVSQQ
notes: LpoB, E. coli; also called lipoprotein LpoB; source: E. coli BL21(DE3), purified (HisTrap, Superdex 200), as in Egan et al. 2014
On to B1, for which the Kd turned out to be 273 nM.

For the origin of these results see paper PMC6220978, “Induced conformational changes activate the peptidoglycan synthase PBP1B” (Molecular Microbiology, 2018).
